For the experiment, the target named is 4-Ig human B7H3 (analyte of the Biacore SPR) (Homo sapiens, UniProt Q5ZPR3). The experiment in a line: SPR. In general terms: SPR reads the build-up and loss of mass on a sensor chip optically.

The source of these data is paper PMC12325614 (Nature Communications, 2025).

Broadly, the Kd is the constant that tells how readily two partners part at equilibrium. A high value points to lower affinity.

Chain of 4-Ig human B7H3 (analyte of the Biacore SPR) (Q5ZPR3 29-466): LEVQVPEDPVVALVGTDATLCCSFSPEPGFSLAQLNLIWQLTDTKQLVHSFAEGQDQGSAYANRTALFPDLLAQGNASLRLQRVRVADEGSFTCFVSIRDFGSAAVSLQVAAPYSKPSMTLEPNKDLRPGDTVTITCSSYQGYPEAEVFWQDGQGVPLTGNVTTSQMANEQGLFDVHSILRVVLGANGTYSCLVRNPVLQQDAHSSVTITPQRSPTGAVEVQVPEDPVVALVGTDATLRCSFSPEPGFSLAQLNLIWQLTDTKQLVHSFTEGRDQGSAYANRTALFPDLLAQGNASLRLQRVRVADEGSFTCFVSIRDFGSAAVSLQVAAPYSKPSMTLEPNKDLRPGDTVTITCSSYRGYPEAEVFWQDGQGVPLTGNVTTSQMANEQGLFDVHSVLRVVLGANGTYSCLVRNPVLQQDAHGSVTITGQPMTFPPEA

B1: TE9 whole antibody in human IgG1 format (antibody, V domains shown)
VH: QVQLQQSGAALVKPGTSVKLSCKASGYTFTSYWMHWVKQRPGQGLEWIGMIHPKSGSVDYNEKFTNKATLTGDKSSGTAYMQLSSLTSEDSAVYYCARGGYGSPFDYWGQGTTVTVSS
VL: ENVLTQSPAIMSASPGEKVTMTCSASSSVSYMYWYQQKPGSSPRLLIYRTSNLASGVPARFSGSGSGTSYSLTISSMEAEDAATYYCQQWSSNPPTFGGGTKLEIK
B1 displayed a Kd of 0.44 nM.

B2: MGA271 whole antibody in human IgG1 format (antibody, V domains shown)
VH: EVQLVESGGGLVQPGGSLRLSCAASGFTFSSFGMHWVRQAPGKGLEWVAYISSDSSAIYYADTVKGRFTISRDNAKNSLYLQMNSLRDEDTAVYYCGRGRENIYYGSRLDYWGQGTTVTVSS
VL: DIQLTQSPSFLSASVGDRVTITCKASQNVDTNVAWYQQKPGKAPKALIYSASYRYSGVPSRFSGSGSGTDFTLTISSLQPEDFATYYCQQYNNYPFTFGQGTKLEIK
Take B2: binding was characterised by a dissociation constant (Kd) of 1.61 nM.
